Laboratory results as given in patent US20160272937A1, “METHODS OF GENERATING INTERMEDIATE MESODERM CELLS FROM HUMAN PLURIPOTENT STEM CELLS” (THE BRIGHAM AND WOMEN'S HOSPITAL, INC., priority 2013, published 2016).

Experiments:
Type in all cases: cell-based, human
CHIR-induced hPSCs [1] = assay: Definitive endoderm differentiation of CHIR-induced hPSCs (SOX17/FOXA2 immunostaining)
Method: Mesendoderm differentiation—the media is changed to Advanced RPMI (A-RPMI, Invitrogen) supplemented with 1×L-glutamax and 1× penicillin/streptomycin and either CHIR99021 (CHIR, Stemgent), human Wnt3a (R&D systems), and/or human activin A (R&D systems) at the doses described. […] Hepatic differentiation—cells at the definitive endoderm stage are treated with A-RPMI+1×L-glu+1×P/S+1×B27 supplement (Invitrogen)+20 ng/mL BMP-4 (R&D systems)+10 ng/mL FGF2 (Invitrogen) for 5 days, then A-RPMI+1×L-glu+1×P/S+1×B27+10 ng/mL HGF for 5 days, then HCM Hepatocyte Culture Medium (Lonza) supplemented with 20 ng/mL Oncostatin M and 10 ng/mL HGF (Peprotech) for 5 days. Pancreatic differentiation—cells at the definitive endoderm stage are treated with DMEM/F12+2% FBS (Hyclone)+50 ng/mL FGF7 (R&D systems) for 2 days, then high-glucose DMEM (Mediatech)+1% B27+2 μM retinoic acid (Sigma)+0.25 μM KAAD cyclopamine (EMD Millipore)+100 ng/mL recombinant human Noggin (R&D systems) for 4 days, then high-glucose DMEM+1% B27+100 ng/mL Noggin+300 nM indolactam V (Stemgent)+1 μM ALK5 inhibitor II (Axxora) for 4 days. […]
Nuclei can be counterstained with DAPI (Sigma). […] Immunofluorescence is visualized using an inverted fluorescence microscope (Nikon Eclipse Ti, Tokyo, Japan). Quantification is performed by counting a minimum of five random fields at 10× magnification. […]

CHIR-induced hPSCs [2] = assay: Growth factor screen for PAX2 induction in CHIR-induced mesendodermal cells (immunostaining); settings: CHIR 24 hours then increasing doses of factor, day 4
Method: For immunofluorescence studies, cultures are washed once with PBS (Invitrogen) and fixed in 4% paraformaldehyde for 15 min at room temperature (RT). Fixed cells are then washed three times in PBS and incubated in blocking buffer (0.3% Triton X-100 (Fisher Scientific) and 5% normal donkey serum (EMD Millipore) in PBS) for 1 hour at RT.
The cells are then incubated with primary antibody overnight at 4° C. or for 2 hours at RT in antibody dilution buffer (0.3% Triton X-100 and 1% BSA (Roche) in PBS). Cells are then washed three times in PBS and incubated with Alexa Fluor 488-, 555-, or 647-conjugated secondary antibodies (1:500) (Molecular Probes) in antibody dilution buffer for 1 hour at RT. For immunostaining with Biotinylated Lotus Tetragonolobus Lectin (LTL, Vector Labs), a Streptavidin/Biotin Blocking Kit (Vector Labs) and Alexa Fluor 488- or 647-conjugated Streptavidin (Molecular Probes) were used according to manufacturer's instructions.
Nuclei can be counterstained with DAPI (Sigma). […] Immunofluorescence is visualized using an inverted fluorescence microscope (Nikon Eclipse Ti, Tokyo, Japan). Quantification is performed by counting a minimum of five random fields at 10× magnification.
PAX2 is selected since it is an early marker of IM, and, unlike the markers OSR1 or LHX1 which are also expressed in the adjacent lateral plate mesoderm, PAX2 expression is restricted in mesoderm to the IM.

[3] = test system: hPSC-derived PAX2+LHX1+ cells; assay: SIX2 induction in PAX2+LHX1+ cells (cap mesenchyme differentiation, immunofluorescence); settings: activin A 10 ng/ml added on day 3, 5 additional days

B1: activin A: human activin A (R&D systems) (protein, UniProt P08476 311-426, looked up)
Inhibin beta A chain: GLECDGKVNICCKKQFFVSFKDIGWNDWIIAPSGYHANYCEGECPSHIAGTSGSSLSFHSTVINHYRMRGHSPFANLKSCCVPTKLRPMSMLYYDDGQNIIKKDIQNMIVEECGCS
modifications: Inhibin beta A chain
For B1, which “number of SOX17+ cells” value (CHIR-induced hPSCs [1]; activin A added after 48 hours of CHIR treatment, 4 days of differentiation) is on record?
The value was “markedly reduced”.

What about the “efficiency of SOX17+FOXA2+ definitive endoderm generation” value (CHIR-induced hPSCs [1]; high doses of activin A after 24 hours of CHIR treatment, 2-3 days of subsequent differentiation) of the same molecule?
The value was “greater than 95%”.

What about the PAX2 expression (CHIR-induced hPSCs [2]) of the same molecule?
The PAX2 expression was “no PAX2 expression”.

What about the “SIX2+ cells by immunofluorescence” value [3] of the same molecule?
The value was “small populations of SIX2+ cells”.
